In article PMC5897418, “A Synthesized Glucocorticoid- Induced Leucine Zipper Peptide Inhibits Retinal Müller Cell Gliosis” (Frontiers in Pharmacology, 2018):
No end group written: not given here.

Columns and labels:
[1] = system: Müller cells; conditions: 10 μM FITC-labeled GILZ-p, 6 and 12 h, confocal immunofluorescence
Experimental: Müller cells were cultured on 6-well plates and starved in serum-free DMEM F12 for 24 h. The cells were then treated with 10 μM fluorescein isothiocyanate (FITC)-labeled GILZ-p for 6 and 12 h, respectively. After treatment, the Müller cells were washed with PBS, fixed in 4% paraformaldehyde (Sigma-Aldrich Corp., St. Louis, MO, United States), and permeabilized in 0.1% Triton X-100 (Promega, Madison, WI, United States) for 10 min. The cells were counterstained with 4′6-diamidino-2-phenylindole (DAPI) (Sigma-Aldrich Corp.) and examined under a laser confocal microscope (Leica Microsystems, Wetzlar, Hesse-Darmstadt, Germany).

[2] = system: Müller cells; conditions: 10 μM FITC-labeled GILZ-p, 15 min, serum-starved primary rat Müller cells, flow cytometry
Experimental: Müller cells were cultured on 6-well plates and starved in serum-free DMEM F12 for 24 h.
Müller cells were cultured on 6-well plates and starved in serum-free DMEM F12 for 24 h. […] Click here for additional data file.

[3] = water and culture medium
[4] = system: Müller cells; conditions: 10, 50, 100, and 150 μM, 24 h, primary rat Müller cells, n = 6, compared with control group
Experimental: The viability of Müller cells was determined by the cell counting kit-8 (CCK-8) assay. Briefly, 0.5 × 10^5 cells per well were seeded in 96-well plates and allowed to attach overnight. Then, the culture media were replaced with fresh media containing different concentrations of GILZ-p (0, 10, 50, 100, and 150 μM). After 24 h, 10 μL CCK-8 (Dojindo, Kumamoto, Japan) solution was added to each well, and the plates were incubated for another 2 h. Measurements of optical density were obtained at a wavelength of 450 nm using a spectrophotometer.

[5] = target: nuclear factor (NF)-κB p65 (rat (endogenous in primary retinal …, UniProt Q7TQN4 1-550)); test: cell-based or functional assay
Chain of nuclear factor (NF)-κB p65 (rat (Q7TQN4 whole entry): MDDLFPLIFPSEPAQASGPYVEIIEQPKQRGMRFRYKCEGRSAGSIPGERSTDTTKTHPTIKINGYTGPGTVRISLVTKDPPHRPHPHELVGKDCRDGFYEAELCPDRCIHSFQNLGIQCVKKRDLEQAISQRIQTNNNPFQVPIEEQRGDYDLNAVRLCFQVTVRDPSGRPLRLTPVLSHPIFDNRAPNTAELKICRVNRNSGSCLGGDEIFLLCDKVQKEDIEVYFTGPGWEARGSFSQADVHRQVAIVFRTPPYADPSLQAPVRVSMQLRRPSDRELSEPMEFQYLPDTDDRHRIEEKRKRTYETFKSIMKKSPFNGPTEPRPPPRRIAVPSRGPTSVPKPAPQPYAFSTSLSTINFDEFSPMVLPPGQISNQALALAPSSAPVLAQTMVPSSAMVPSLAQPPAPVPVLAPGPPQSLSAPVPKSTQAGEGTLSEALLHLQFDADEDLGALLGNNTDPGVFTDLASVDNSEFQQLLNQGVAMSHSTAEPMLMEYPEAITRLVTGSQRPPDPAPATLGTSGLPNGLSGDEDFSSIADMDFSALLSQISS

Molecule | intracellular localisation of GILZ-p [1] | Müller cells associated with GILZ-p [2] | solubility [3] | cytotoxicity (cell viability, CCK-8) [4] | IC50 of GILZ-p (without the His tag) for inhibiting LPS-induced ICAM-1 expression in Müller cells (western blot, 24 h) [5] | IC50 of GILZ-p (without the His tag) for inhibiting LPS-induced IL-1β expression in Müller cells (western blot, 24 h) [5] | IC50 of GILZ-p (without the His tag) for inhibiting LPS-induced MCP-1 expression in Müller cells (western blot, 24 h) [5] | IC50 of GILZ-p (without the His tag) for inhibiting LPS-induced TNFα expression in Müller cells (western blot, 24 h) [5] | IC50 of GILZ-p (without the His tag) for inhibiting the LPS-induced downregulation of AQP4 in Müller cells (western blot, 24 h) [5] | IC50 of GILZ-p (without the His tag) for inhibiting the LPS-induced upregulation of GFAP in Müller cells (western blot, 24 h) [5]
YGRKKRRQRRRKTLASPEQLEKFQSRLSPEEPAPEAPETPEAPGGSAV [GILZ-p] | aggregated in the cytoplasm | about 7.92% | water-soluble and fully dissolved in culture medium | no detectable toxicity | – | – | – | – | – | –
YGRKKRRQRRRKTLASPEQLEKFQSRLSPEEPAPEAPETPEAPGGSAV [His-tag-GILZ-p (TAT-GILZ 98-134 peptide with a C-terminal 6x His tag)] | – | – | – | – | 7.13 µM | 8.93 µM | 5.82 µM | 8.77 µM | 2.32 µM | 11.2 µM
